Assay results reported in patent US6500916B1, “Carrier polymers migrating into target organs and drug-containing polymers” (Ono Pharmaceutical Co., Ltd., priority 1998, dated 2002).

Tests used:
[1] = tested on: CCl4 induced liver damage; experiment: Effect on CCl4 induced liver damage (plasma GPT level); assay type: in vivo; conditions: mouse plasma, 18 hours fasting after CCl4 (10% v/v in sesame oil, 10 ml/kg i.p.); tail vein injection; Free PGE1 0.065 mg/kg, polymer 1 mg/kg
Description: A solution of 10% (v/v) of CCl4 in sesame oil at dose of 10 ml/kg was administered into mouse abdominal cavity, and then drug (saline solution (Control), Free-PGE1 (Comparison), drug (PGE1)-containing polymer of the present invention PGE1-HZ-PLGA-HZ-Lac (reductive) (prepared in Example 6)) were injected into mouse through its tail vein at the setting dose. After the mouse had been fasted for 18 hours (25° C., water was freely given), blood was collected to assay GPT level (IU/L) in plasma.

[2] = Biodistribution of [3H]PGE1-containing polymer (Polymer P2) after tail vein injection; assay type: in vivo, mouse; conditions: i.v., 3H label; for percentage of concentration in 1 ml of plasma: mean±S.D.; for percentage of urinary excretion: Urine
Description: PLGA-HZ-Gal (prepared in Example 3) and PLGA-HZ-Lac (prepared in Example 5) were labeled with ^111In and were injected into mouse through its tail vein at dose of 1 mg/kg to analyze biodistribution of them. The results are shown in Tables 1 and 2 (Each value in Tables means the percentage of concentration in 1 ml of plasma, the percentage of amount of accumulation in each organ and the percentage of urinary excretion of the said PLGA derivatives (mean±S.D.), respectively at various times after administration.).
Biodistribution of [^3H]PGE1-HZ-PLGA-HZ-Gal (prepared in Example 4, degree of polymerization=97) and [^3H]PGE1-ED-PLGA-ED-Gal (Comparison: the polymer described in International J. Pharmaceutics, 155, 65-74 (1997), degree of polymerization=101) was analyzed by the same procedure as described in Experiment 1. The results are shown in Tables 3 (Invention) and 4 (Comparison) (Each value in Tables means the percentage of concentration in 1 ml of plasma, the percentage of amount of accumulation in each organ and the percentage of urinary excretion of the said [^3H]PGE1 derivatives (mean±S.D.), respectively at various times after administration.).

Q: Which GPT level [1] does the source give for “PGE1-HZ-PLGA-HZ-Lac (Reductive/degree of Polymerization: d^3=0, x^3=35, y^3=36, z^3=22, w^3=4)” here?
A: Its GPT level is 239.12 ± 77.482 IU/L.

Q: Which GPT level [1] does the source give for `CCCCCC(O)/C=C/C1C(O)CC(=O)C1CCCCCCC(=O)O` (centres unmarked) [Free PGE1, PGE1, reference compound] here?
A: Its GPT level is 660.89 ± 218.28 IU/L.

Q: With “[^3H]PGE1-HZ-PLGA-HZ-Gal (Degree of Polymerization: d^3=0, x^3=29, y^3=32, z^3=31, w^3=5) [[^3H]-PGE1-HZ-PLGA-HZ-Gal]” as the molecule, how does the “percentage of amount of accumulation in organ” value (from here on “percentage of amount … in organ”) ([2]; Kidney, 1 min.) read?
A: Its value is 1.26 ± 0.23%.

Q: What about the “percentage of amount … in organ” value ([2]; Kidney, 5 min.) of the same molecule?
A: The value was 1.23 ± 0.06%.

Q: And the “percentage of amount … in organ” value ([2]; Kidney, 10 min.)?
A: The value was 0.79 ± 0.14%.

Q: What about the “percentage of amount … in organ” value ([2]; Kidney, 60 min.) of the same molecule?
A: Its value is 0.64 ± 0.22%.

Q: What about the “percentage of amount … in organ” value ([2]; Liver, 1 min.) of the same molecule?
A: Its value is 54.42 ± 0.79%.

Q: What about the “percentage of amount … in organ” value ([2]; Liver, 5 min.) of the same molecule?
A: The value was 70.39 ± 3.51%.

Q: What about the “percentage of amount … in organ” value ([2]; Liver, 10 min.) of the same molecule?
A: Its value is 80.54 ± 9.52%.

Q: And the “percentage of amount … in organ” value ([2]; Liver, 60 min. (1 hour))?
A: Its value is 85.43 ± 3.78%.

Q: What about the “percentage of amount … in organ” value ([2]; Lung, 1 min.) of the same molecule?
A: Its value is 1.88 ± 0.46%.

Q: What about the “percentage of amount … in organ” value ([2]; Lung, 5 min.) of the same molecule?
A: The value was 1.64 ± 0.56%.

Q: What about the “percentage of amount … in organ” value ([2]; Lung, 10 min.) of the same molecule?
A: Its value is 1.00 ± 0.21%.

Q: And the “percentage of amount … in organ” value ([2]; Lung, 60 min.)?
A: Its value is 0.44 ± 0.18%.

Q: And the “percentage of concentration in 1 ml of plasma” value (“percentage of concentration” for short) ([2]; 1 min. after administration)?
A: Its value is 14.33 ± 0.75%.

Q: What about the “percentage of concentration” value ([2]; 5 min. after administration) of the same molecule?
A: The value was 1.64 ± 0.51%.

Q: And the “percentage of concentration” value ([2]; 10 min. after administration)?
A: Its value is 0.40 ± 0.06%.

Q: And the “percentage of concentration” value ([2]; 60 min. after administration)?
A: The value was 0.26 ± 0.07%.

Q: And the “percentage of amount … in organ” value ([2]; Spleen, 1 min.)?
A: Its value is 1.11 ± 0.14%.

Q: And the “percentage of amount … in organ” value ([2]; Spleen, 5 min.)?
A: Its value is 1.85 ± 0.10%.

Q: What about the “percentage of amount … in organ” value ([2]; Spleen, 10 min.) of the same molecule?
A: Its value is 1.24 ± 0.17%.

Q: What about the “percentage of amount … in organ” value ([2]; Spleen, 60 min.) of the same molecule?
A: The value was 1.84 ± 0.16%.

Q: And the “percentage of urinary excretion” value ([2]; 1 min.)?
A: Its value is 0.00 ± 0.00%.

Q: What about the “percentage of urinary excretion” value ([2]; 5 min.) of the same molecule?
A: Its value is 1.17 ± 1.01%.

Q: And the “percentage of urinary excretion” value ([2]; 10 min.)?
A: The value was 1.79 ± 0.25%.

Q: What about the “percentage of urinary excretion” value ([2]; 60 min.) of the same molecule?
A: The value was 1.45 ± 0.83%.
